Measured values taken from patent US20030228627A1, “Assay for p53 function in cells” (priority 2002, published 2003).

Molecular target: Full-length human histidine-tagged p300 (human) (UniProt Q09472)
Assay: cell-based or functional assay

Sequence of Full-length human histidine-tagged p300 (human) (Q09472 2-2414): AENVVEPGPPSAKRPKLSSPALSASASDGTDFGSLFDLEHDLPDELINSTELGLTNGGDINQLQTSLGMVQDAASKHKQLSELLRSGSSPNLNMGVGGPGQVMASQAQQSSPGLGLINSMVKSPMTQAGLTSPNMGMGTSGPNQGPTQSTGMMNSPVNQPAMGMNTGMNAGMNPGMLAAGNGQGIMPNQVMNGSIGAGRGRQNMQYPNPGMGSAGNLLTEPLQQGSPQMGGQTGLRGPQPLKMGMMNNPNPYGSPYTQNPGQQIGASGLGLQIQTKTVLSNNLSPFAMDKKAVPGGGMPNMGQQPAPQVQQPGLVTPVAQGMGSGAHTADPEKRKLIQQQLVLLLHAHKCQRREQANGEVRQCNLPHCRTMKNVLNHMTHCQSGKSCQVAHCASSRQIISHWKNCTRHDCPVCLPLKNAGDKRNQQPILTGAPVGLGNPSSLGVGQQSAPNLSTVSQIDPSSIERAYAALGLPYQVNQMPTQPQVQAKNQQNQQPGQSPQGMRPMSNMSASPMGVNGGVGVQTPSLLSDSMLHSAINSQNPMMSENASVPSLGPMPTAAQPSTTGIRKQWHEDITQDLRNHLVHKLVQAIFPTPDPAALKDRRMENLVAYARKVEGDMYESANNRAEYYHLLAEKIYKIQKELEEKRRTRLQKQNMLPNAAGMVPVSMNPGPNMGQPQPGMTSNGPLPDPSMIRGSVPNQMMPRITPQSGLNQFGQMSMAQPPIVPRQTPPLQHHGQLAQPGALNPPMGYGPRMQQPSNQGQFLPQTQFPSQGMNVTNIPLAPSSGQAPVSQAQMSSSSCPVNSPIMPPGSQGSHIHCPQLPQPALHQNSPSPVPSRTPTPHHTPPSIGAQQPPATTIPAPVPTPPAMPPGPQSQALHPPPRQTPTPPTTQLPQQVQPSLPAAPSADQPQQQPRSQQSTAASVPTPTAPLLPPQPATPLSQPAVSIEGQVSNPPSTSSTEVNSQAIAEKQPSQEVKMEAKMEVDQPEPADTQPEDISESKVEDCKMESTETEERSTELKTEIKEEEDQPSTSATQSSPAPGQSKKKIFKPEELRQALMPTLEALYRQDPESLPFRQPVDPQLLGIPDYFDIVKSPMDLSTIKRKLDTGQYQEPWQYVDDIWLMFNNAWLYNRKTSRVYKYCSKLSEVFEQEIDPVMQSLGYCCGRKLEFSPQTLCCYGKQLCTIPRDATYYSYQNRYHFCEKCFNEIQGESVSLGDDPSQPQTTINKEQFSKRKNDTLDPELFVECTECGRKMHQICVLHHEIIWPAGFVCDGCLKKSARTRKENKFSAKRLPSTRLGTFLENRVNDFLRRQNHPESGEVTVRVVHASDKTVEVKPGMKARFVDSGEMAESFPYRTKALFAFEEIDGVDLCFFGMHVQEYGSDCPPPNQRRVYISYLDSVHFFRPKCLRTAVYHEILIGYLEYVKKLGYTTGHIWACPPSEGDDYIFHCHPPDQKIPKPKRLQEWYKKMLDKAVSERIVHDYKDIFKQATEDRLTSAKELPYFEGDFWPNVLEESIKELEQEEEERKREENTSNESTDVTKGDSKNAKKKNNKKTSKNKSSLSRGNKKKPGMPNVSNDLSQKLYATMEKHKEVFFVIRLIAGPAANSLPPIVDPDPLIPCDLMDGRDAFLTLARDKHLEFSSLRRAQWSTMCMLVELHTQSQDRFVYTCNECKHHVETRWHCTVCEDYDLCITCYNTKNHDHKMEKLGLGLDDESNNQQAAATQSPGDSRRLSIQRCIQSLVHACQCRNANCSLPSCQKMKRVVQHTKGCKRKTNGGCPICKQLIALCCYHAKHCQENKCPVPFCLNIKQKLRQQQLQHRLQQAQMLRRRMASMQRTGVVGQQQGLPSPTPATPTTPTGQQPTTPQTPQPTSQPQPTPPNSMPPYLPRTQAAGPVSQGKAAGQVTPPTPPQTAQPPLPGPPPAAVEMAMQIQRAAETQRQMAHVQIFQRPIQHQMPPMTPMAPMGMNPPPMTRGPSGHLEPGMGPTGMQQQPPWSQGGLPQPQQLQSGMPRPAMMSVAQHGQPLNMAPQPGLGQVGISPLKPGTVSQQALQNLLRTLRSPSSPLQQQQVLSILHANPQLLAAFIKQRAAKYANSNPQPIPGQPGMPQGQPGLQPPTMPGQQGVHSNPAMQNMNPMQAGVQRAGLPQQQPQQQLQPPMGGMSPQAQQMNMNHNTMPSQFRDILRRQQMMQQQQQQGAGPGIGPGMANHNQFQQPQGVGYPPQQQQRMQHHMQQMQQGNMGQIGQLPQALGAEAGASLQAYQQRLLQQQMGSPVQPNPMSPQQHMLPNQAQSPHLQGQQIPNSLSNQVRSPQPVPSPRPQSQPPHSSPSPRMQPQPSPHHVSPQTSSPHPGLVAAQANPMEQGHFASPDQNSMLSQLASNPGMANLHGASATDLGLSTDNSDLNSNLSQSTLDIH

Full-length human Flag-tagged p53 (native, unacetylated) (from UniProt P04637 1-393)
increased acetylation in a distal region 2 kb downstream of the proximal promoter of the p21-LUC plasmid (in vitro chromatin immunoprecipitation with anti-acetyl-H4): 1.4 fold
increased acetylation near the 3' p53 binding site of the p21-LUC plasmid (in vitro chromatin immunoprecipitation with anti-acetyl-H4): 3.4 fold
